Assay [1] concerns the target acrylodan-labeled A-C2 (Q26C mutant). In words: other fluorescence titration; fixed acrylodan-labeled DARPin (100 nM D1 or 15 nM high affinity DARPins) titrated with tubulin; 20 mM K-phosphate pH 7.2, 100 mM KCl, 1 mM MgCl2, 0.5 mM EGTA, 10 μM GDP, 20 °C; 1:1 quadratic fit.
Assay [2] has as its target acrylodan-labeled TM-3 variant (Q26C mutant). The assay is described as above.
The target of assay [3] is acrylodan-labeled D1 (Q26C mutant). Described as above.
In assay [4] the target is subtilisin-digested acrylodan-labeled TM-3 (C-cap-truncated TM-3). The assay is described as above.
In assay [5] the target is acrylodan-labeled A-C2 (Q26C mutant). Description: fluorescence kinetics (stopped-flow and spectrofluorometer); koff: chase of acrylodan-labeled DARPin from tubulin by excess unlabeled DARPin (stopped-flow for D1, spectrofluorometer for high affinity DARPins), mono-exponential fit; kon: at least 5-fold excess of tubulin added to 50 nM labeled DARPin in a stopped-flow system, pseudo-first-order, slope of kobs against tubulin concentration.

For assay [6], the target named is acrylodan-labeled TM-3 variant (Q26C mutant). The assay is described as above.
Assay [7] addresses acrylodan-labeled D1 (Q26C mutant). Described as above.
Assay [8] has as its target subtilisin-digested acrylodan-labeled TM-3 (C-cap-truncated TM-3). The assay is described as above.
A further assay has as its target DARPin D1. In words: SPR; Proteon XPR36; DARPins immobilised through their N-terminal His-tag on Ni2+-activated tris-NTA (HTG) sensor chip, tubulin injected at five concentrations; 20 °C; buffer of the fluorescence experiments with 20 μM EGTA and 0.005% Tween 20; Langmuir fit; for D1 also KD from the plateau values. On the technique in general: SPR reads the build-up and loss of mass on a sensor chip optically.

The target in the next assay is TM-3 1-149. The description is as above.
TM-3 1-149, sequence (main, as listed by the source): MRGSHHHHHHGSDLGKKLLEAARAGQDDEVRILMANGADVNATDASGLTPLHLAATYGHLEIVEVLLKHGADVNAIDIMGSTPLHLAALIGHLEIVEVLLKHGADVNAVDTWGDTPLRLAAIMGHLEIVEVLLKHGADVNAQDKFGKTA

Where “and” joins values, the source holds several entries; their conditions need not be identical. Equal entries are not always repeated.

DARPin D1, sequence (main, as listed by the source): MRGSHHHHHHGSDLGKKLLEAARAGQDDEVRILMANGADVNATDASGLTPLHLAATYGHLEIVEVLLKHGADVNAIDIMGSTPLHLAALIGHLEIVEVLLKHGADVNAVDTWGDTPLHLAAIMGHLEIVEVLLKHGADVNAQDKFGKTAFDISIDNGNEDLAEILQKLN

As to “αβ tubulin heterodimer (tubulin) (complex)”, the dissociation constant (Kd) (usually the concentration at which binding is half-saturated) came to 0.82 nM in assay [1]; 0.9 nM in assay [2]; 127 nM in [3]; 1.03 nM in [4]; 0.444 nM in [5]; 0.269 nM in [6]. The dissociation constant (Kd) was 115 nM in [7]; 0.172 nM in [8]; 300 nM and 275 nM with DARPin D1; 1.6 nM with TM-3 1-149. Besides, the off-rate constant (koff) (in general, a measure of how fast the partners let go of each other) is 0.0071 s⁻¹ in assay [5]; 0.0049 s⁻¹ in [6]; 1.49 s⁻¹ in assay [7]; 0.0046 s⁻¹ in assay [8]; 0.22 s⁻¹ with DARPin D1; 0.0027 s⁻¹ with TM-3 1-149. Besides, the kon (as a rule, the rate constant with which the complex forms) in assay [5] was found to be 1.6e+07 M⁻¹ s⁻¹; in assay [6] it was 1.82e+07 M⁻¹ s⁻¹; in assay [7], 1.3e+07 M⁻¹ s⁻¹; in assay [8] it was 2.67e+07 M⁻¹ s⁻¹; in the assay with DARPin D1 it was 800000 M⁻¹ s⁻¹; with TM-3 1-149 it was 1.7e+06 M⁻¹ s⁻¹.

The values above are taken from PMC4933879.
